Source: paper PMC7319049 (Nature, 2020)

B1: Swp82 (natural protein)
chain: MLGEDEGNTVLEKGNNPSVKQGEVGAVFIVPKILIREHERVILKQILQILDQDELVQPPLDKFPYKKLELPKYIDELKTRDATNTSYKMIQLDAYGEKKVGSNGELFGGRHYLFNTFTFTAHMGVLLVLLQDVIKVLYQSNATHDEDEFIVQHDQILVMETSEEQTKFLAKNGVIPEESKGSFKYITARSAFVEFGASVIAGGQRIVDDYWESLAKKQNLSSHQRVFKLSTNLISKISLLRPSFQNNRISNANEISANTNNTCTISTSKFESQYPIVTEQPSAEIREAYIENFAKGEHISAIVPGQSISGTLELSAQFRVPRYHSKNSFQQALQMKAMDIPIGRHEELLAQYESQAPDGSASISLPNHIPSVNPSNKPIKRMLSSILDINVSSSKNKKSEENEMIKPMNKGQHKNNTSLNINGWKFESLPLKSAENSGKQQYYRGLPLYEKNTLLERLKQLTPNEIKELEHLHDAVFVNTGLQNVRKVRTKKWKKYWQYKAGIPIGLKRSQLDEFKNKYLKDVLAQTSVTTNFNEITNTDETITTKRVPNPNFLGNCNIKDFKPPYIYSHVNKVPQNVAGDKTAVKLDTEVKNTNANPVVATDPVAAKPDNLANFSNEVAMNN
B2: Snf12 (natural protein)
chain: MSKVMKPSNGKGSRKSSKAATPDTKNFFHAKKKDPVNQDKANNASQITPTVPHSHPSDMVIPDHLAELIPELYSFQQLVDSEKRLDHFIHLRNLHMKRMVAQWERSKLSQEFLYPHLNFPNVKFLRIFISNVSENQPWQMDTNNEADLMALENATWTMRIEGRLLDNVQANDPAREKFSSFIESIVVDFKNKENDNVPSTKFNAAPEENATEGPSDKKLNLNLPLQFSLPNGDNSTTTNTDQNNATMGEETAKKDMSSTTPKLESVKWQYDPNNPVDFDGLDIKRVGSENVECTISILRKSSPEEPFMSYSPQLTAIIGLKSGTSHDAIFSIYKYIHLNELLTNDESAFENLMGNRNNHNSNTSTSKMLDAASSQVSIVKLDTQLITLLPSSLKESSPDTMKLTDLLSLINSTHLLPLQPIEIDYTVRVDKASTYGELVLDIEVPDVNALKFNNTQRESQIGAAELNENARELEQIKPKIALQDKEITSVLSNLHESNKRYRFFKKISEDPVKALNECIASTSNALKVLSGDEGYNEDMVRRANFYKENEAMLRENIEVILSNGRM

How the values were obtained:
Experiment in all cases: cryo-EM structure
Swi3 = target: T1, Swi3 (S. cerevisiae, UniProt P32591 1-825)
T1 sequence: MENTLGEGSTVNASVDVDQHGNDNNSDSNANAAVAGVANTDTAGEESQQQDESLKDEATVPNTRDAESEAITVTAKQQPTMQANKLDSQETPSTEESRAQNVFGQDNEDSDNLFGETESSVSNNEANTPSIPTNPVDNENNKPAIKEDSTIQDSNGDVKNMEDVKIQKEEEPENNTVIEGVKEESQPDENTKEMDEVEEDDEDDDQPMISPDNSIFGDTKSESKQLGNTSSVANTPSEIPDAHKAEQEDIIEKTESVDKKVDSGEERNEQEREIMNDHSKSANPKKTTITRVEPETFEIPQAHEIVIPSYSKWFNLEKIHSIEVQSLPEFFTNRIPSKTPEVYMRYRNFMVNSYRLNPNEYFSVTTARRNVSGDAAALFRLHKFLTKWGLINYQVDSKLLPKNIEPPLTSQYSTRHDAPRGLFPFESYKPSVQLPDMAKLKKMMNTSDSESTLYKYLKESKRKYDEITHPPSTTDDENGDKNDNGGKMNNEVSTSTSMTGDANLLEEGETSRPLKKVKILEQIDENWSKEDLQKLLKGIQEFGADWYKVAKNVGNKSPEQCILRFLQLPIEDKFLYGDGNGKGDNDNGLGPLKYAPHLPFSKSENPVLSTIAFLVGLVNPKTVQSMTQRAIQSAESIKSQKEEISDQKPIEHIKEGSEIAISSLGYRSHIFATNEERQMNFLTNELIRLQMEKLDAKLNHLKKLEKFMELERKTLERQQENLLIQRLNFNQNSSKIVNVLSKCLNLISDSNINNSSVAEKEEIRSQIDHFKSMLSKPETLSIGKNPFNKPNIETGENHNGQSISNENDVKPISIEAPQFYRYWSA

Snf5 = Snf5 (S. cerevisiae, UniProt P18480 1-905)
Swi1 = target: T2, Swi1 (S. cerevisiae, UniProt P09547 1-1314)
T2 sequence: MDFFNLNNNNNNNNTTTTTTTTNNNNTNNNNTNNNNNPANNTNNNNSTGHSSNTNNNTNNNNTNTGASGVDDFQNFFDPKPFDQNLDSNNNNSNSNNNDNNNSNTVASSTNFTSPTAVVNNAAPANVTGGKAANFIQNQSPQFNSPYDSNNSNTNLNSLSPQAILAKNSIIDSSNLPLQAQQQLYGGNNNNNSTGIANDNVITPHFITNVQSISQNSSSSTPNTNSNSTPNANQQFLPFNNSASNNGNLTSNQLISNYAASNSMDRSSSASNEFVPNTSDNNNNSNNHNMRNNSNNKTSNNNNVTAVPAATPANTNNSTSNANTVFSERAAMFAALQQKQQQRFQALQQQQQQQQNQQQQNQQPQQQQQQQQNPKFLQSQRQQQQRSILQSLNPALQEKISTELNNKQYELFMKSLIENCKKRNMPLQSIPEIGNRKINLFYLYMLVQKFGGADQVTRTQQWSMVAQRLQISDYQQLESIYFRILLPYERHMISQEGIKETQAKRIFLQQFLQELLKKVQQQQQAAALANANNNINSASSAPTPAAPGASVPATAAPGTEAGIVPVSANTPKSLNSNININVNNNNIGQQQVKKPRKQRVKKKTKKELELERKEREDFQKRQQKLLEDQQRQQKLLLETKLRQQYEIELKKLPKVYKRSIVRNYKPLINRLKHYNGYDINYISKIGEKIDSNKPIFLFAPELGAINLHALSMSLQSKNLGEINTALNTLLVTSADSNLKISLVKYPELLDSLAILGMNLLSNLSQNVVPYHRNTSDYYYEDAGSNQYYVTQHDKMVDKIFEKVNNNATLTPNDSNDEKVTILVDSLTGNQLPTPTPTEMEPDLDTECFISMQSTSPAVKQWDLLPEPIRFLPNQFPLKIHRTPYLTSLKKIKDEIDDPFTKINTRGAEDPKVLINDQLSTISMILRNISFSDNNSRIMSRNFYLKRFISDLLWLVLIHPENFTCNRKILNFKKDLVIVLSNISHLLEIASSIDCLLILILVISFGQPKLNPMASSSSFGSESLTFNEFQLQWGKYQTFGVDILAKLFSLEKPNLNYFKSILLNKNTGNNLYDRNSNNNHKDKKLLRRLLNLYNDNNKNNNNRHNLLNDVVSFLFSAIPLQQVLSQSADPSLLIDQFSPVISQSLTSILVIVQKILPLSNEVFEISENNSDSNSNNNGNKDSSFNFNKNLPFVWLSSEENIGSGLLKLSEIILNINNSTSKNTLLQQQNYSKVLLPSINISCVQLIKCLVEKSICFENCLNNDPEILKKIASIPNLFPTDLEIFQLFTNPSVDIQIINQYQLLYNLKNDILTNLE

Snf5, sequence (P18480 whole entry): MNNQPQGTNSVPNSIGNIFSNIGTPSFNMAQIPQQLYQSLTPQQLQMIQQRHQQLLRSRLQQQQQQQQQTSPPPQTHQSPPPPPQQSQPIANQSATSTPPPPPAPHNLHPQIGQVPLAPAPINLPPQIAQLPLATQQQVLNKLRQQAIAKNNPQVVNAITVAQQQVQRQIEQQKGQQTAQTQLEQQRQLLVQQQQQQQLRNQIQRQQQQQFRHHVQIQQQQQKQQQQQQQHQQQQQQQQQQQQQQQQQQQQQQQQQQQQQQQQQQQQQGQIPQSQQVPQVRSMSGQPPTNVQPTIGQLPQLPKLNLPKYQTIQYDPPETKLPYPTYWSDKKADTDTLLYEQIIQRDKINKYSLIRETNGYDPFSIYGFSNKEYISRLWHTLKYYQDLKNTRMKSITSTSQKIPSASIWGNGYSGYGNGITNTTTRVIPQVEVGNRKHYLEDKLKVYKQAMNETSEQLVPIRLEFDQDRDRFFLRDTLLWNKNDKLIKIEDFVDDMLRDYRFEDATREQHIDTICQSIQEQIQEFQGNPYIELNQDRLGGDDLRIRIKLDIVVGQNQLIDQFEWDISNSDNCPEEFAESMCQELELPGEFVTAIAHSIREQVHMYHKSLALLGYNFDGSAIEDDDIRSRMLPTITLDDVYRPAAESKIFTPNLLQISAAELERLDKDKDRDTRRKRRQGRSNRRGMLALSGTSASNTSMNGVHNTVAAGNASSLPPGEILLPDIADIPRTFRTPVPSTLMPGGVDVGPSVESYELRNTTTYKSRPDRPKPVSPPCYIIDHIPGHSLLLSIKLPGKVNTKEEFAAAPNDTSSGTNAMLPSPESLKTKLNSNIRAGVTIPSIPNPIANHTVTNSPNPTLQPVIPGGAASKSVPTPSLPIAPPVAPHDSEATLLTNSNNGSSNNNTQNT

Row | Binder | binding result (Swi3) | binding result (Snf5) | binding result (Swi1)
1 | B1 | binds | binds | 
2 | B2 | binds |  | binds
